Three sequences from the supplement of paper PMC6379048 can be followed below.

Holding throughout (test): EC50 of free RNA motif oligo competing protein binding to immobilised probe
For one data set, the target named is T1, HNRNPUL1 (UniProt Q9BUJ2).
T1 sequence: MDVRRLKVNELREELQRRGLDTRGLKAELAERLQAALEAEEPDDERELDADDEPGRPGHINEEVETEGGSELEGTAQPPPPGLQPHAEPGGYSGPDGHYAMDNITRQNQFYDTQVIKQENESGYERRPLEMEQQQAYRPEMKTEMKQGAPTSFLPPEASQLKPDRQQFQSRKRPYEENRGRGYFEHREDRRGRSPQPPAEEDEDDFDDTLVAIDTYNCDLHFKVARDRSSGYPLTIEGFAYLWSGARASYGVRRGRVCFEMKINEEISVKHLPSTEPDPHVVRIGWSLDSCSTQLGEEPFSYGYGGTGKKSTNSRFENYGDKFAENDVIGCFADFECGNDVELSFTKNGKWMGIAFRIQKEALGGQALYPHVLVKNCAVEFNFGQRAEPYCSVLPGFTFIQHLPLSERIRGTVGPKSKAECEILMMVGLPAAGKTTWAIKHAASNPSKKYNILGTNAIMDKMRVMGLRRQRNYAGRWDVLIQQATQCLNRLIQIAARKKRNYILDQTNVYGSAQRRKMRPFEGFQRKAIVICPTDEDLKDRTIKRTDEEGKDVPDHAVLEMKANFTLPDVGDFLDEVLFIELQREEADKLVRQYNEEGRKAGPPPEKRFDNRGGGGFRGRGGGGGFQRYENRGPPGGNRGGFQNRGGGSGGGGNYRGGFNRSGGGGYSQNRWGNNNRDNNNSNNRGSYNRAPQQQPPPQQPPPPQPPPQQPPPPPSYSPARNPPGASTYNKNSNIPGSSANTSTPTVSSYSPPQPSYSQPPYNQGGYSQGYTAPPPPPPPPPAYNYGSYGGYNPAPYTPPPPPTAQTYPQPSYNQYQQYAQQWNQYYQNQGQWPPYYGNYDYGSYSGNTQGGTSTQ
The protocol:
(§1)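 Competition-binding assay: HEK293-FT cell lysate (2.5 mg protein) pre-incubated 1 h at 4°C with free motif-containing RNA oligos (0 to 30 µM, 12 doses), then pulled down with the same 5'-amino-C6 RNA oligos immobilised on NHS-Sepharose beads (30 min, 4°C). Bound proteins were quantified by label-free LC-MS/MS and normalised to the water control. EC50 came from a four-parameter log-logistic fit; Kd = EC50 x depletion factor. Random/reversed control probes are dropped.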

The next data set addresses T2, DHX36 (UniProt Q9H2U1).
T2 sequence: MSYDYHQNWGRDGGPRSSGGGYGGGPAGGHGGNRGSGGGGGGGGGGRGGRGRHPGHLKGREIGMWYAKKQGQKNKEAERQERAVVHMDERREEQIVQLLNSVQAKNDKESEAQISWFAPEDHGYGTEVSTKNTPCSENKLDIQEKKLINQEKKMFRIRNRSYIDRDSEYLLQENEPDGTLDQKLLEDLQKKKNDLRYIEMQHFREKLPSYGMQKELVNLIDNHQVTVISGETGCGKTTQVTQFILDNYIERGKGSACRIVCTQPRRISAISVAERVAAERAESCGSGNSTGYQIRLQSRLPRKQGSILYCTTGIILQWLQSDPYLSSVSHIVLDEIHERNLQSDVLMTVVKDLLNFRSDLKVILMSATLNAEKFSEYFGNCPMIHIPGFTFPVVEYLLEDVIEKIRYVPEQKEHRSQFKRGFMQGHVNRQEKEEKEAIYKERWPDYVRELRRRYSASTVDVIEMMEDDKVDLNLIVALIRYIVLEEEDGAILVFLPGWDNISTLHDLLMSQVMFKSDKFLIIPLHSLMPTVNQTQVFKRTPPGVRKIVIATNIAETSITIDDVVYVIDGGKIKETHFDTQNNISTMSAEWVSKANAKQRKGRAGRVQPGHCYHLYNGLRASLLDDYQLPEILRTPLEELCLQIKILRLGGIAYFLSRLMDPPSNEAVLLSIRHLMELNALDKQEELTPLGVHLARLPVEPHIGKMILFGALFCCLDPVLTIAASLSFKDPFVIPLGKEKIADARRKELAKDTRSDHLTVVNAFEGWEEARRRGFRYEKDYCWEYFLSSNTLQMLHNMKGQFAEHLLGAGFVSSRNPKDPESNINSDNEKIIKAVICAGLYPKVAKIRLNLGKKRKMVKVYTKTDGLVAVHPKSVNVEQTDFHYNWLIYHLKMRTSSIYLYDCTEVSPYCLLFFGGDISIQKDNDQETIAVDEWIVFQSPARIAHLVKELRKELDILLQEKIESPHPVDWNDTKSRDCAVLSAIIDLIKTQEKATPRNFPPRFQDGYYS
As for the experimental part: as §1

Another data set has as its target DHX15 (UniProt O43143). As for the experimental part:
as §1

The target of another data set is ZC3HAV1 (UniProt Q7Z2W4). As for the experimental part: as §1
ZC3HAV1, sequence (Q7Z2W4 whole entry): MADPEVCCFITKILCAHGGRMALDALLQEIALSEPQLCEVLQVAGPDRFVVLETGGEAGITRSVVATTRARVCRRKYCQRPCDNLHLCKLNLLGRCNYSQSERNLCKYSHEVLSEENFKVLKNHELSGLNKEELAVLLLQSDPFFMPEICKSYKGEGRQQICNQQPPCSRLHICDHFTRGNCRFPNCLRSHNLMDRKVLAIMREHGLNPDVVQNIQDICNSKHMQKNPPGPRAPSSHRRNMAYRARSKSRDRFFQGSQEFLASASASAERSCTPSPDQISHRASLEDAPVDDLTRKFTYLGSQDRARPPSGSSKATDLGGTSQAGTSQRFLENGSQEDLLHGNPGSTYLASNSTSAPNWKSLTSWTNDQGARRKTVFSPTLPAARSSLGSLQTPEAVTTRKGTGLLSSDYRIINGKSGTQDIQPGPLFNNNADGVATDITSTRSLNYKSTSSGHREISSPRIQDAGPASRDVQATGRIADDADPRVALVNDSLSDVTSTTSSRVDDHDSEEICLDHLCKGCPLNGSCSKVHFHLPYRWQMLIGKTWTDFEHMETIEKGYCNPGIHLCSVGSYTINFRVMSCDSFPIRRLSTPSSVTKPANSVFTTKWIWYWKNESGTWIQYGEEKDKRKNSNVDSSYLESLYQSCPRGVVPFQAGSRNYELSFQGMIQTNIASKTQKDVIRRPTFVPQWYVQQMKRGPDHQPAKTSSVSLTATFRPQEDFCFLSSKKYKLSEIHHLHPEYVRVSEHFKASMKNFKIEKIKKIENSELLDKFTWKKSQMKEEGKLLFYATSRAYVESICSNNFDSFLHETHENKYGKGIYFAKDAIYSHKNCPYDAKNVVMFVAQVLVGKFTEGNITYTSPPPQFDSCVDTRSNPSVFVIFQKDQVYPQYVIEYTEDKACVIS
Another data set has as its target T3, RTCA (UniProt O00442).
T3 sequence: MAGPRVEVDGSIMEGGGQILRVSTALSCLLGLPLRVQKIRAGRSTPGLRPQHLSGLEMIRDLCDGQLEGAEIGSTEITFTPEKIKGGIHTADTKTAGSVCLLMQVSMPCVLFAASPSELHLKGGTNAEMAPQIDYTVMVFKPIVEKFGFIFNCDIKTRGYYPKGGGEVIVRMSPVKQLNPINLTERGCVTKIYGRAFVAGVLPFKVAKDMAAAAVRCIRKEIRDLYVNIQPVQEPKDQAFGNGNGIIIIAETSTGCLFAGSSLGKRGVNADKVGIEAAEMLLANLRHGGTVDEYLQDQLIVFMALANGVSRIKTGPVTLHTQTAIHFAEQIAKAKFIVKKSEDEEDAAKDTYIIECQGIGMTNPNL
The protocol:
as §1

DHX15, sequence (O43143 whole entry): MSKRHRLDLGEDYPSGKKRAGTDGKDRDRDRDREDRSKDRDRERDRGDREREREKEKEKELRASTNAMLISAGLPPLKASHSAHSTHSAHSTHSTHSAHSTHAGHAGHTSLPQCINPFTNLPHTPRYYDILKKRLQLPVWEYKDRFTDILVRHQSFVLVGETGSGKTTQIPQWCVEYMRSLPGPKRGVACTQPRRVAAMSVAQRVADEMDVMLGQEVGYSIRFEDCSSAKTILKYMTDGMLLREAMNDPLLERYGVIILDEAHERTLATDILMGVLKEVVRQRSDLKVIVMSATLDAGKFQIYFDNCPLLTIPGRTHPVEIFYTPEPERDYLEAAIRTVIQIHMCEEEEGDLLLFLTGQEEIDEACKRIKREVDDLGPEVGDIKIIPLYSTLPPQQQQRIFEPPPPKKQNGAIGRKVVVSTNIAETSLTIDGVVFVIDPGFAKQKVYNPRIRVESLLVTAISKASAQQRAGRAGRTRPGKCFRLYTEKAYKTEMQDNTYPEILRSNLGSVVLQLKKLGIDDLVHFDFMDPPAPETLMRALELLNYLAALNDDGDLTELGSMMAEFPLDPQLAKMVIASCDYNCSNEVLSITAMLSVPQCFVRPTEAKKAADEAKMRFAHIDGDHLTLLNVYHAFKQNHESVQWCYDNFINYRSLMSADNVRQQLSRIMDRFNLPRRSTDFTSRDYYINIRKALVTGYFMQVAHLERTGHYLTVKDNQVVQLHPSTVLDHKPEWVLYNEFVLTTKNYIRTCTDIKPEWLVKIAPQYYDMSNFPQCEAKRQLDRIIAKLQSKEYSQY

On to AAUAAA, for which the concentration giving a half-maximal response (EC50) with HNRNPUL1 amounted to 1410 nM; with DHX36, 3290 nM; with DHX15, 2150 nM; in the data set with ZC3HAV1 it was 3900 nM; with RTCA, 566 nM.
For CUGUCCU, in that order: 152 nM, 5030 nM, 757 nM, 1320 nM and 1940 nM.
As for UAUUUAU, the EC50 came to 643 nM in the data set with HNRNPUL1; 1010 nM with DHX36; 576 nM in the data set with DHX15; 5380 nM with ZC3HAV1; 381 nM in the data set with RTCA.
